21 substances from the supplement of paper PMC12042874 can be followed below.

± gives the uncertainty stated by the source.

One data set in a line: amyloid nucleation score (Sup35N fusion, yeast selection) (log enrichment); library NNK3; higher = more nucleation; inactive = no reads after selection. Summed up: (§1)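 Random libraries were run with three technical output replicates. In each, psi-negative yeast expressing Sup35N fused to peptides of 20 random codons were induced 24 hours with 100 μM copper sulfate and grown 7 days at 30°C on medium lacking adenine and uracil, and input and output plasmid inserts were Illumina-sequenced. The nucleation score is the DiMSum log enrichment of output over input reads, centred on the mode score of non-aggregating sequences, and sequences under 100 input reads were excluded.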
LMYMS: the amyloid nucleation score result was “inactive”.

A further data set is described as follows: amyloid nucleation score (Sup35N fusion, yeast selection) (log enrichment); library NNK1; higher = more nucleation; inactive = no reads after selection. Summed up: as §1
In turn, LMYMS showed an amyloid nucleation score of -0.11 ± 0.67.

On to ASLLMLLVGRKICLAQVNKG, for which the amyloid nucleation score was 0.412 ± 0.51.

With SRGPRFDCPMLVTVPSTSLE, the amyloid nucleation score was -1.1 ± 2.4.

As for KGDNIPLGAPSREMLTVYRA, the amyloid nucleation score was -0.146 ± 0.5.

Regarding SFLLGQGTL, the amyloid nucleation score came out at 0.724 ± 0.69.

With RYHRWFRVRSSENRWGIC, the amyloid nucleation score is -0.51 ± 0.93.

In turn, LRHFSRSF returned an amyloid nucleation score of 0.16 ± 0.29.

Turning to VLSSGESIRNTAINVEVEHQ, the amyloid nucleation score was determined as 0.449 ± 0.38.

For SEGIPPQFFRYTAGASNLDT, the amyloid nucleation score was 0.306 ± 0.64.

Consider STASQWQCHD, for which the amyloid nucleation score was 0.461 ± 0.41.

Take ILLMSNYYAVRQEEFDQLPV: the amyloid nucleation score result is “inactive”.

RSLLLALFAICYVCGGYEWV: the amyloid nucleation score was 1.24 ± 0.85.

On to LTVGYSRYIPVRYGF, for which the amyloid nucleation score is -1.08 ± 0.43.

In turn, AVVMTLIVYALGYT returned an amyloid nucleation score of 1.27 ± 0.3.

The substance LSSTLCSIVF showed an amyloid nucleation score of 0.051 ± 0.57.

Take DCVSHAGQRGIMCRSGSLRF: the amyloid nucleation score was -0.138 ± 0.64.

For the substance FIVTYSNTIRYSMPSKLPWQ, the amyloid nucleation score came to 3.26 ± 0.077.

NWNCICFLDPISRDTLYPQ had an amyloid nucleation score of 8.489 ± 0.046.

Substance ILNFRERL came in with an amyloid nucleation score of -1.06 ± 0.43.

SVTLCKFRKT: the amyloid nucleation score was -0.197 ± 0.37.

Substance TLNGFPLSISTANCEVRYDK came in with an amyloid nucleation score of 0.005 ± 0.9.
